Data on 50 molecules can be found in patent publication US20120045393A1 (priority 2009, published 2012).

As a reminder, the EC50 is the concentration at which the effect is half-maximal.

Test [1] deals with LHRH binding sites on EFO-27 human ovarian cancer cells (human). The test can be described thus: competition with [125I-Tyr8]BRU-2477 on EFO-27 cells.
Test [2] addresses LHRH receptor (LHRH binding sites) on EFO-27 human ovarian cancer cells (human). The test can be described thus: competition with [125I-Tyr8]BRU-2477, EFO-27 cells.

Non-standard residues stand in square brackets, D forms with d. Primed or numbered codes have the meaning given here. DO3A10CM″ = chelating group at the N-terminus (X in the sequence tables); azaGly′ = aza-glycine residue at the C-terminus, with NH2; Bpa = N[C@@H](Cc1ccc(C(=O)c2ccccc2)cc1)C(=O)O; d2Nal = N[C@H](Cc1ccc2ccccc2c1)C(=O)O; 3Pal = N[C@@H](Cc1cccnc1)C(=O)O; DO3A10CM = not defined here; Bpa4 = non-natural residue; Dnalg1 = not defined here; Ahgly = not defined here; Ampa4 = not defined here; Ampg4 = not defined here; Gufe4 = not defined here; Mogly = not defined here; dAfe4 = not defined here; Thz′ = not defined here; Tha = not defined here; azaGly = NNC(=O)O; Sar = CNCC(=O)O

For DO3A10CM-[Sar][3Pal]WSH[dR]W[Bpa]P[azaGly]-NH2 (reading uncertain) [BRU-2818], the EC50 in test [1] came to 1620 nM.
For the molecule XHWSHXWXPX (Ac-Amfe4 at 1; Darg at 6; Bpa4 at 8; azaGly-NH2 at 10) [BRU-2839], the EC50 in test [2] was 250 nM.

B1: BRU-3058 (peptide)
peptide: DO3A10CM-[d2Nal][Gufe4]WSH[dR]W[Bpa]P[azaGly′]-NH2
modifications: reading uncertain; also: printed as DO3A10CM-Dnal2-Gufe4-Trp-Ser-His-Darg-Trp-Bpa4-Pro-azaGly-NH2
For B1, the EC50 in test [2] and in test [1] was 260 nM each time.
In test [2], XHWSHXWXPX (AA1 Sar; AA6 Darg; AA8 Bpa4; AA10 azaGly-NH2) [BRU-2441] yielded an EC50 of 140 nM. In test [1], this molecule gave an EC50 of 140 nM and a times more potent than BRU-2439 of 2 times.

B2: BRU-3021 (peptide)
peptide: XRWSHXWXP
modifications: N-terminal DO3A10CM; Dnal2 at 1; Darg at 6; Bpa4 at 8; C-terminal Az23m2po-NH2 at 10
Regarding B2, the EC50 in test [2] and in test [1] was 500 nM each time.
In test [1], XRWSHXWXPX (DO3A10CM on N-terminus; AA1 Cafe4; AA6 Darg; AA8 Bpa4; AA10 azaGly-NH2) [BRU-3092] gave an EC50 of 2000 nM.
With RRWSHXWXPX (N-terminal DO3A10CM; Darg at 6; Bpa4 at 8; azaGly-NH2 at 10) [BRU-3050], the EC50 in test [2] was 310 nM.
On to XHWSHXWXPX (Ac-Dnal2 at 1; Darg at 6; Bpa4 at 8; azaGly-NH2 at 10) [BRU-2803], for which the EC50 in test [2] amounted to 260 nM.
XRWSHXWXP (DO3A10CM on N-terminus; AA1 Dnal2; AA6 Darg; AA8 Bpa4; AA10 Mo2abn) [BRU-3020]: the concentration giving a half-maximal response (EC50) in test [2] and in test [1] was 450 nM throughout.
Take XRWSHXWXP (DO3A10CM on N-terminus; AA1 Dnal2; AA6 Darg; AA8 Bpa4; AA10 Pheol) [BRU-2983]: the EC50 in test [2] and in test [1] was 450 nM throughout.

B3: BRU-2971 (peptide)
peptide: DO3A10CM-[d2Nal]RWSH[dR]W[Bpa]PGQ-NH2
modifications: reading uncertain; also: printed as DO3A10CM-Dnal2-Arg-Trp-Ser-His-Darg-Trp-Bpa4-Pro-Gly-Gln-NH2
For the molecule B3, the EC50 in test [2] and in test [1] was 490 nM in each case.
As for XHWSHXWXPX (DO3A10CM on N-terminus; AA1 Nal2; AA6 Darg; AA8 Bpa4; AA10 azaGly-NH2) [BRU-2809], the EC50 in test [1] is 3540 nM.
In turn, XRFSHXWXPX (N-terminal DO3A10CM; Dnal2 at 1; Darg at 6; Bpa4 at 8; azaGly-NH2 at 10) [BRU-3106] registered an EC50 in test [2] of 430 nM.
On to HRWSHXWXPX (N-terminal DO3A10CM; Darg at 6; Bpa4 at 8; azaGly-NH2 at 10) [BRU-3025], for which the EC50 in test [2] is 470 nM.
With DO3A10CM-G[Dnalg1]HWSH[dR]W[Bpa]P[azaGly]-NH2 (reading uncertain) [BRU-2770], the EC50 in test [1] was 2700 nM.

B4: BRU-3067 (peptide)
peptide: GXRWSHXWXPX
modifications: DO3A10CM-Gly (linker) on N-terminus; AA1 Dtic; AA6 Darg; AA8 Bpa4; AA10 azaGly-NH2
In test [1], B4 showed an EC50 of 510 nM.
In test [1], XHWSHXWXPX (DO3A10CM on N-terminus; AA1 EtGly; AA6 Darg; AA8 Bpa4; AA10 azaGly-NH2) [BRU-2788] yielded an EC50 of 210 nM.
In the case of XHWSHXWXPX (DO3A10CM on N-terminus; AA1 Sar; AA6 Darg; AA8 Bpa(NOH); AA10 azaGly-NH2) [BRU-2907], in test [1], the EC50 came out at 1900 nM.

B5: BRU-2719 (peptide)
peptide: XXWSHXWXPX
modifications: DO3A10CM on N-terminus; AA1 Sar; AA2 4ClPhe; AA6 Darg; AA8 Bpa4; AA10 azaGly-NH2
The molecule B5 had an EC50 in test [1] of 630 nM.

B6: BRU-3098 (peptide)
peptide: KXRWSHXWXPX
modifications: Lys(DO3A10CM) before 1 (chelator on the Lys side chain); Dnal2 at 1; Darg at 6; Bpa4 at 8; azaGly-NH2 at 10
For B6, the EC50 in test [2] was determined as 410 nM.

B7: BRU-3059 (peptide)
peptide: DO3A10CM-[d2Nal][Ampa4]WSH[dR]W[Bpa]P[azaGly′]-NH2
modifications: reading uncertain; also: printed as DO3A10CM-Dnal2-Ampa4-Trp-Ser-His-Darg-Trp-Bpa4-Pro-azaGly-NH2
B7: the EC50 in test [2] and in test [1] was 410 nM in each case.

B8: BRU-2985 (peptide)
peptide: XRWSHXWXP
modifications: N-terminal DO3A10CM; Dnal2 at 1; Darg at 6; Bpa4 at 8; C-terminal A1gua5o3pt at 10
Take B8: the EC50 in test [2] and in test [1] was 460 nM throughout.
Regarding DO3A10CM-[d2Nal]RWSH[dR]W[Bpa4]PGR-NH2 (reading uncertain) [BRU-2969], the EC50 in test [2] and in test [1] was 240 nM throughout.

B9: BRU-2811 (peptide)
peptide: HWSHXWXPX
modifications: N-terminal DO3A10CM on His (AA1 absent); Darg at AA6; Bpa4 at AA8; azaGly-NH2 at AA10
Molecule B9 showed an EC50 in test [2] of 360 nM.
With XHWSHXWXPX (AA1 Ac-Amfe4 with (DO3A10CM) as printed; AA6 Darg; AA8 Bpa4; AA10 azaGly-NH2) [BRU-2881], the EC50 in test [1] was determined as 1380 nM.

B10: BRU-3006 (peptide)
peptide: XRWSHXWXP
modifications: N-terminal DO3A10CM; Dnal2 at 1; Darg at 6; Bpa4 at 8; C-terminal Ap (aminophenyl) at 10
For the molecule B10, the EC50 in test [2] and in test [1] was 420 nM throughout.
The molecule XRWSHXWXPX (DO3A10CM on N-terminus; AA1 Sar; AA6 Darg; AA8 Bpa4; AA10 azaGly-NH2) [BRU-2817] returned an EC50 in test [1] of 1700 nM.
For XHWSHXWXPX (pGlu at 1; Darg at 6; Bpa4 at 8; azaGly-NH2 at 10) [BRU-2822], in test [2], the EC50 was determined as 420 nM.
In test [1], XRWSHXWXPX (DO3A10CM on N-terminus; AA1 Nal2; AA6 Darg; AA8 Bpa4; AA10 azaGly-NH2) [BRU-3051] had an EC50 of 620 nM.
The molecule DO3A10CM-[Sar][dAfe4]WSH[dR]W[Bpa]P[azaGly]-NH2 (reading uncertain) [BRU-2815] yielded an EC50 in test [1] of 7250 nM.

B11: BRU-2964 (peptide)
peptide: DO3A10CM-[d2Nal]RWMH[dR]W[Bpa]P[azaGly]-NH2
modifications: reading uncertain; also: printed as DO3A10CM-Dnal2-Arg-Trp-Met-His-Darg-Trp-Bpa4-Pro-azaGly-NH2
Molecule B11 registered an EC50 in test [2] of 220 nM.
Take XRWSHXWXPX (N-terminal DO3A10CM; Dnal2 at 1; Darg at 6; Nal2 at 8; azaGly-NH2 at 10) [BRU-3027]: the EC50 in test [2] is 370 nM.
For DO3A10CM-G[Mogly]HWSH[dR]W[Bpa]P[azaGly]-NH2 (reading uncertain) [BRU-2796], the EC50 in test [2] and in test [1] was 340 nM throughout.

B12: BRU-2963 (peptide)
peptide: XXRWSHXWXPX
modifications: N-terminal DO3A10CM; Ambz4 linker before 1; Dnal2 at 1; Darg at 6; Bpa4 at 8; azaGly-NH2 at 10
In turn, B12 showed an EC50 in test [2] of 280 nM.
In turn, XHWSHXWXPX (DO3A10CM on N-terminus; AA1 Ambz4; AA6 Darg; AA8 Bpa4; AA10 azaGly-NH2) [BRU-2737] returned an EC50 in test [1] of 1400 nM.
Consider DO3A10CM-G[Ahgly]HWSH[dR]W[Bpa]P[azaGly]-NH2 (not fully specified; reading uncertain) [BRU-2876], for which the EC50 in test [2] and in test [1] was 500 nM in each case.
In the case of XRRSHXWXPX (N-terminal DO3A10CM; Dnal2 at 1; Darg at 6; Bpa4 at 8; azaGly-NH2 at 10) [BRU-3111], the EC50 in test [2] came out at 250 nM.
In test [1], XHWSHXWXPX (DO3A10CM on N-terminus; AA1 Dtyr; AA6 Darg; AA8 Bpa4; AA10 azaGly-NH2) [BRU-2870] came in with an EC50 of 10000 nM.

B13: BRU-2962 (peptide)
peptide: GXRWSHXWXPX
modifications: N-terminal DO3A10CM; Gly linker before 1; Dnal2 at 1; Darg at 6; Bpa4 at 8; azaGly-NH2 at 10
In the case of B13, in test [2], the EC50 is 470 nM.
Regarding {DO3A10CM″}-[Sar][His(pime)]WSH[dR]W[Bpa]P[azaGly]-NH2 [BRU-2759], the EC50 in test [1] was 10000 nM.
The molecule XRWNHXWXPX (N-terminal DO3A10CM; Dnal2 at 1; Darg at 6; Bpa4 at 8; azaGly-NH2 at 10) [BRU-2956] gave an EC50 in test [2] of 270 nM.
For DO3A10CM-[Sar][Tha]WSH[dR]W[Bpa]P[azaGly]-NH2 (reading uncertain) [BRU-2768], the EC50 in test [1] came out at 12800 nM.

B14: BRU-2984 (peptide)
peptide: XRWSHXWXP
modifications: N-terminal DO3A10CM; Dnal2 at 1; Darg at 6; Bpa4 at 8; C-terminal Gua (guanidine) at 10
Regarding B14, the EC50 in test [2] and in test [1] was 400 nM in each case.
DO3A10CM-G[Thz′]HWSH[dR]W[Bpa]P[azaGly]-NH2 (reading uncertain) [BRU-2728] showed an EC50 in test [1] of 3150 nM.

B15: BRU-3052 (peptide)
peptide: GXRWSHXWXPX
modifications: DO3A10CM-Gly (linker) on N-terminus; AA1 Tic; AA6 Darg; AA8 Bpa4; AA10 azaGly-NH2
For B15, the EC50 in test [1] amounted to 550 nM.

B16: BRU-2439 (peptide)
peptide: XHWSHXWYPX
HELM: PEPTIDE1{[Sar].H.W.S.H.[dR].W.Y.P.[O=C(NN[*:1])[*:2]].[am]}$$$$V2.0; N-terminus assumed
SMILES: CNCC(=O)N[C@@H](Cc1c[nH]cn1)C(=O)N[C@@H](Cc1c[nH]c2ccccc12)C(=O)N[C@@H](CO)C(=O)N[C@@H](Cc1c[nH]cn1)C(=O)N[C@H](CCCNC(=N)N)C(=O)N[C@@H](Cc1c[nH]c2ccccc12)C(=O)N[C@@H](Cc1ccc(O)cc1)C(=O)N1CCC[C@H]1C(=O)NNC(N)=O
With B16, the EC50 in test [2] and in test [1] was 250 nM throughout.
With XRWSHXWXP (AA1 Sar; AA6 Darg; AA8 Bpa4; AA10 Da15o3pt) [BRU-3007], the EC50 in test [2] and in test [1] was 220 nM in each case.
In the case of XRWSHRWXPX (N-terminal DO3A10CM; Dnal2 at 1; Bpa4 at 8; azaGly-NH2 at 10 (L-Arg at 6)) [BRU-3031], the EC50 in test [2] was 310 nM.
For the molecule XRWSHXWXPX (N-terminal DO3A10CM; Damfe4 at 1; Darg at 6; Bpa4 at 8; azaGly-NH2 at 10) [BRU-2997], in test [2], the EC50 is 330 nM.

B17: BRU-3060 (peptide)
peptide: DO3A10CM-[d2Nal][Ampg4]WSH[dR]W[Bpa]P[azaGly′]-NH2
modifications: reading uncertain; also: printed as DO3A10CM-Dnal2-Ampg4-Trp-Ser-His-Darg-Trp-Bpa4-Pro-azaGly-NH2
Take B17: the EC50 in test [2] and in test [1] was 340 nM each time.
